{"source": "the DeepSol protein solubility set"}
{"experiment": "soluble on expression in E. coli; label from the status in PepcDB or PDB records"}
{"sequence": "MPEGPAAVLAPRRKTRQLQVGTVGVGSDFPVSVQSMCTTKTHDVNATLQQIAELTASGCDIVRVACPRQEDADALATIAKKSQIPVIADIHFQPRYIFAAIEAGCAAVRVNPGNIKEFDGRVKEVAKAAGDAGIPIRIGVNAGSLDPRLMQKYGKATPEALVESALWEAGLFEEHGFGDIKISVKHNDPVIMVEAYRQLAAQCNYPLHLGVTEAGPAFQGTIKSAVAFGALLADGIGDTIRVSLSAPPAEEIKVGTQILQSLNLRPRKLEIVSCPSCGRAQVDVYTLADEVTAGLEGMEIPLRVAVMGCVVNGPGEAREADLGVASGNGKGQIFVKGKVIKTVPEAQIVETLIEEAMRIAEEMEGDATSGSPVVTVS", "soluble on expression in E. coli": "not soluble"}
{"sequence": "MGSDKIHHHHHHMLLILDEYFKEHPIKLRIVDGLYTSGISIRNGRFFTNDVEISVSEIASAFNVNRKTVYETIKLVESNDSLRRVMSSIKPMADIADVALLTGNQIITAYTTLGHFPYVFKEIFNTISKYGCYIREVFSRNMSQEESFIRIIFYRPIPDRIIGQIRKIDGVKSLEVRVNMDTDQILCNNCDIKICPTKYISDVEKEELGDL", "soluble on expression in E. coli": "not soluble"}
{"sequence": "MGGWIRNIGRYLSYLVDDTFEEYAYDVVDGIAKARTQEELLEGVYKALRLAPKLKKKAESKGCPPPRIPSPEDIEALEEKVEQLSNPKDLRKLAVSLALWAFASWNNCPKKGKGTEGGVELEHHHHHH", "soluble on expression in E. coli": "soluble"}
{"sequence": "DDIKVAVVGAMSGPIAQWGDMEFNGARQAIKDINAKGGIKGDKLVGVEYDDACDPKQAVAVANKIVNDGIKYVIGHLCSSSTQPASDIYEDEGILMISPGATNPELTQRGYQHIMRTAGLDSSQGPTAAKYILETVKPQRIAIIHDKQQYGEGLARSVQDGLKAANANVVFFDGITAGEKDFSALIARLKKENIDFVYYGGYYPEMGQMLRQARSVGLKTQFMGPEGVGNASLSNIAGDAAEGMLVTMPKRYDQDPANQGIVDALKADKKDPSGPYVWITYAAVQSLATALERTGSDEPLALVKDLKANGANTVIGPLNWDEKGDLKGFDFGVFQWHADGSSTKAK", "soluble on expression in E. coli": "soluble"}
{"sequence": "MLARGKTNLKIEEIRMHKHHEIHRVKPLMPALCRIRQGKKVINWETHTLTVDNNQIILFPCGYEFYIENYPEAGLYLAEMLYLPIDLIESFQKLYTVTDQIRNKTSFFLPQNPELIYCWEQLKTSVSRGFSTKIQEHLAMGVLLSLGVNHVNHLLLSYSKQSLISRCYNLLLSEPGTKWTANKVARYLYISVSTLHRRLASEGVSFQSILDDVRLNNALSAIQTTVKPISEIARENGYKCPSRFTERFHNRFNITPREIRKASRE", "soluble on expression in E. coli": "soluble"}
{"sequence": "MAEAVLRVARRQLSQRGGSGAPILLRQMFEPVSCTFTYLLGDRESREAVLIDPVLETAPRDAQLIKELGLRLLYAVNTHCHADHITGSGLLRSLLPGCQSVISRLSGAQADLHIEDGDSIRFGRFALETRASPGHTPGCVTFVLNDHSMAFTGDALLIRGCGRTDFQQGCAKTLYHSVHEKIFTLPGDCLIYPAHDYHGFTVSTVEEERTLNPRLTLSCEEFVKIMGNLNLPKPQQIDFAVPANMRCGVQTPTALEHHHHHH", "soluble on expression in E. coli": "soluble"}
{"sequence": "MTNSVLRVLEHLRAHDHDAIVLAPGDADTPHEYAGFPVIPLASLHWPGYQDVRVSTSPQWTMERYLSEFEPDVVHLAGPFMIGYKGAMAAASLGIPIVAIYQTDIPSYAGRYGLGKLEFYGWYRVRQIHSLAVATYAPSTFSRDQLVSHGVPRVDIWGRGVDKVRFHPSKRSQQLHDEWAPNGEVVIGYMGRLAAEKRVADMTNLADIPNTKLVIVGDGPARAEVEKQLPHAVFTGGLGGEDLPRALASMDVFCSTGELETFCQAVQEAKACGLPVISPRKGGPIDLIDSSRTGWLYEPGDMTDFRSRVIDLVGDDYKRHAMGIAARASIENRTWENLCAELVEHYKEAIRLAGRSTRIRAVLLEHHHHHH", "soluble on expression in E. coli": "not soluble"}
{"sequence": "MKFGPASPKDAIGGVTVHTLRQGPLVLKKGTTIGPAEVEALERAGIKDVVVVRMEEGDVSEDVAAASIALAVGGEGIHVERAFTGRANLFAARPGVLVIDRAAVDRINNIDEAITFATLTAYKPVVEGEMVGTVKIIPFGVEGALRDAAVKAAGRDVLKIAPYAIKRVGVVSTLLPGLSSKVIDKTLRVTAERLAPSGAGIIAERRVQHDEHALSAAIKELLALGAELVIVFGASAIADRRDVIPAAVTGIGGEIEHFGMPVDPGNLLLIARAEGVPVLGAPGCARSPVENGFDWVLMRLLAGIKVTRAELMGMGVGGLLMEIVTRPQPRARPEIEGNSQVAAIVLAAGRSTRMGGPNKLLAELDGKKLVRIATEQALASKASEVIVVTGHQTELVEQALQGLKVKFARNPDFAGGIASSVKAGIAAVPEACDGAVVCLGDMPLIDAGLIDRLIDSFAPDRGNLIVVPVSEGRRGNPVLWSRRFFRELMTLDGDVGARHLIAKHTEAVAEVPVDGEGAFLDIDTPQALEAARRGLEHHHHHH", "soluble on expression in E. coli": "not soluble"}
{"sequence": "STQDADRTLKRLQLQMDNLESRVALECKEAFAELQTDINELTNHMDGVQIPFLDYRTYAVRVLFPGIEAHPVLKELDTPPNVEKALRLFGQLLHSRAFLLTFIHTLEAQSSFSMRDRGTVASLTMVALQSRLDYATGLLKQLLADLIEKNLESKNHPKLLLRRTESVAEKMLTNWFTFLLHKFLKECAGEPLFLLYCAIKQQMEKGPIDAITGEARYSLSEDKLIRQQIDYKTLTLHCVCPESEGSAQVPVKVLNCDSITQAKDKLLDTVYKGIPYSQRPKAEDMDLEWRQGRMARIILQDEDITTKIECDWKRVNSLAHYQVTDGSLVALVPKQVSAYNMANSFTFTRSLSRYESLLRAASSPDSLRSRAPMLTPDQEAGTKLWHLVRNHDHTDHREGDRGSKMVSEIYLTRLLATKGTLQKFVDDLFETVFSTAHRGSALPLAIKYMFDFLDEQADQRQISDPDVRHTWKSNCLPLRFWVNVIKNPQFVFDIHKNSITDACLSVVAQTFMDSCSTSEHRLGKDSPSNKLLYAKDIPNYKSWVERYYRDIAKMASISDQDMDAYLVEQSRLHANDFNVLSALSELYFYVTKYRQEILTSLDRDASCRKHKLRQKLEQIITLVSSSS", "soluble on expression in E. coli": "soluble"}
{"sequence": "MTLAVLASRAIAGWQAPAVRVETHLGSGLPAFAIVGLPDVEVRESRERVRAAIQNSGFDFPPGRITVNLSPADLPKASARFDLPIALGILLASGQVAASAAQTAALPDCVWAAELSLSGALVPLAAPLALALAVAREQPGATLVLPAGSAAVAAWVPGIRVLAAHTLGEAAAYLAGHAELAPAERRSWPEAEPGPCLSDVRGQPAARRALEVAAAGGHSLLMCGPPGAGKSMLAQRLPGLLPPLEQRQALEVAAIAGAGGAPEVLRGQPPFRAPHHSASAAALVGGGARPRPGEISLAHHGVLFLDELPEFERRALESLREPLETGKVVISRALHSVEYPAVFQLVAAMNPCPCGWRGHASKACRCTPDQVRRYAARVSGPLVDRIDLWIELPATEPQWLAEPPGEPSLPVRERVARCRQRQLARQGCLNAKLSGPALDAHCALGAAARTLLQQAMRRLGGSARAAHRALRVARTLADLAHEPEIGAAHIAEAVQYRRPT", "soluble on expression in E. coli": "not soluble"}
{"sequence": "MQLDPPEPGFYDDPDLSYSIEKSITNWDEKRHEWFKSHPSFKPGSENRILMVTGSQSSPCKNPIGDHLLLLRCFKNKVDYARIHGHDIFYSNSLLHPKMNSYWAKLPVVKAAMLAHPFMD", "soluble on expression in E. coli": "not soluble"}
{"sequence": "MERNELFDLQTLSTRRKIIDRIQVTRMNTGKVDLKTSEFFEQQETQTRSKKKYIWSTGKSKLRRHFFVNRTLPTMKQH", "soluble on expression in E. coli": "not soluble"}
{"sequence": "LVTISSTSAASLPTMPPSGYDQVRNGVPRGQVVNISYFSTATNSTRPARVYLPPGYSKDKKYSVLYLLHGIGGSENDWFEGGGRANVIADNLIAEGKIKPLIIVTPNTNAAGPGIADGYENFTKDLLNSLIPYIESNYSVYTDREHRAIAGLSMGGGQSFNIGLTNLDKFAYIGPISAAPNTYPNERLFPDGGKAAREKLKLLFIACGTNDSLIGFGQRVHEYCVANNINHVYWLIQGGGHDFNVWKPGLWNFLQMADEAGLTRDGNT", "soluble on expression in E. coli": "soluble"}
{"sequence": "MGSDKIHHHHHHMTESSDYESVQVFIGVDVGKDTHHAVAINRSGKRLFDKALPNDENKLRSLISDLKQHGQILLVVDQPATIGALPVAVARSEGVLVGYLPGLAMRRIADLHAGEAKTDARDAAIIAEAARTLPHALRTLKLADEQIAELSMLCGFDDDLAAQTTQASNRILGLLTQIHPAPERVLGPRLEHPAVLDLLQRYPSPEKLASLGEKKLAAQLCKLAPRLGKRLAADIAQALAEQTVVVPGTNAAAVVLPRLALQLITLRKQRDEVALEVEQRVLAHPLYPVLTSMPGVGVRTAARLLTEVACRAFASAAHLAAYAGLAPVTRRSGSSIRGEHPSRRGNKALKRALFLSAFTALRDPLSRAYYTRKMSQGKRHNQVLIALARRRCDVLFAMMRDGTFYTPQGS", "soluble on expression in E. coli": "not soluble"}
{"sequence": "NLKDVEHVVILMQENRSFDHYFGTLKGVRGFGDRMAIPLPDGQRVWHQKGSKGEILPYHFDTSTTSAQRVDGTPHTWPDAQQAWNEGRMDKWLPAKTERSLGYYKEQDIAFQFAMANAFTICDAYHCSFQGGTNPNRLFLWTGTNDPLGQHGGPVTTNDHDSNGPVEQGYTWTTYPERLQAAGITWRVYQDMADNFSDNPLIGFRQYRAAAPDSPLIVNGLSTWKLDALKRDVLANSLPQVSWIVAPAKYSEHPGPSSPIWGAEYTSWVLDALTANPEVWSKTALLVMFDENDGFFDHVAPPAAPSLNKDGTLRGKTTADATLEWHTKGDIRYRNQPYGLGPRVPMYVISPWSKGGWVNSQVFDHTSVIRFLEQRFGVMEPNISPWRRAVCGDLTSAFNFANPNNEPFPELPDTSQADAIVASQIKLPKPKPPAVAAMPKQEMGIRPARALPYELGVHARYRSGGDALSLTFANTGKAGAVFQVFDLLDSENPPKRYTVGARKRLHDSFQGDASGDYHLEVHGPNGFLRVFRGNLRRDLAERKAPLPEVRIDYEPLFGNLRVQLINRGRHPVKLTVKDNVYRQGERRTVNVPPGQRREVRYSLRSSGNWYDFSVSAQGADSFLRRFSGRMEDGRSGFSDPGMGLGTLTF", "soluble on expression in E. coli": "not soluble"}
{"sequence": "GPGSMPAYSEVKGTCGTPVLDQLIGYYVNIQSRKMYYKDFLRIEHQAVRWAFADIRKNSEALAHGLLQTGVRPGDRVLAIQPCNCETFVLQLSCAKIGALLCIVPQDTISADKLRFYLNEFQPRHLVAREWINVPEMKQGELVERNMHFWDTIYNVIPELGLSYPGQKFQWVHSQEFYYLKKIIITDHNMNLLGVTPMRKMLVWGPFSYYEQRLRRLSALLHPDDPVLALEDPNPAMEDKLHITYSHRNCVNAGFLFGQLMQLKAETRFGVMPNHHTDPIGAIIAPYAALTSGAVLVHIHSDMFTDDHAINGIEKLCVEEVETLVGRKADFDLILKHAGNFDADQFEHLRSVVIFEDGIEAPVSEEYLNKLSKALSLDDVYVFRGPIEASYMLTWRTLKKGSQGMVPHVEAKVVGDRGTSDAKVLVAGTRGNLRLKGPHVTAGYYNNAGLMTELIDEHGFASTSREAMIDGKDNITLMSAQTY", "soluble on expression in E. coli": "not soluble"}
{"sequence": "MGSDKIHHHHHHMANMKNSNDRIILFRKAGEKVDATKMLFLTEYGLSHEADTDTEDTMDGSYNTGGSVESTMSGTAKMFYGDDFADEIEDAVVDRVLYEAWEVESRIPGKNGDATKFKAKYFQGFHNKFELKAEANGIDEYEYEYGVNGRFQRGFATLPEAVTKKLKATGYRFHDTTKADALTGEDLTAIPQPKVDSSTVTPGEV", "soluble on expression in E. coli": "not soluble"}
{"sequence": "MPKPYIAINMADLKNEPKTFEMFSAVGPKVCMVTARHPGFVGFQNHVQIGVLPFGERFGGAKMDMTKESSTVRVLQYTMWKDWKDHEEMHRQNWSYLFRLCYSCASQMVWGPWEPIYEIKYADMPINTEMTDFTAVVGKKFAEGKPLEIPVISQPYGKRVVAFGEHTVIPGKEEQFEDAIIKTLEMFKRAPGFLGAMLLKEIGVSGIGSFQFGSKGFHQLLESPGSLEPDPNNVMYQAPEAKPTPPQYIVHVEWANLDALQFGMGRVLLSPEYREVHDEALDTLIYGPYIRIINPVMEGTFWREYLNE", "soluble on expression in E. coli": "soluble"}
